# Data: patent US20250215467A1, “L-THREONINE TRANSALDOLASES AND USES THEREOF” (University of Delaware, priority 2022, published 2025)
# Test system: not listed separately
# Experiment: In vitro assay over 20 h with HPLC analysis (amino acid substrate specificity, diastereomeric excess)
# Assay type: biochemical
# Details: not given
# Procedure: Metabolites of interest were quantified via high-performance liquid chromatography (HPLC) using an Agilent 1260 Infinity model equipped with a Zorbax Eclipse Plus-C18 column. To quantify aldehyde and β-OH-nsAAs, an initial mobile phase of solvent A/B=95/5 was used (solvent A, water+0.1% TFA; solvent B, acetonitrile+0.1% TFA) and maintained for 5 min. A gradient elution was performed (A/B) as follows: gradient from 95/5 to 50/50 for 5-12 min, gradient from 50/50 to 0/100 for 12-13 min, and gradient from 0/100 to 95/5 for 13-14 min. A flow rate of 1 mL min-1 was maintained, and absorption was monitored at 210, 250 and 280 nm.
# We performed an in vitro assay over 20 h using 3 as the aldehyde substrate and either L-Thr, Glycine (Gly), or L-Serine (L-Ser) as the candidate amino acid. Since the TTA-ADH coupled assay is specific to L-Thr, we analyzed TTA activity via HPLC with a chemically synthesized β-OH-nsAA standard for the assumed product from 3.
row,Molecule,β-OH-nsAA product formation from 3 and L-Thr
1,"TmTTA: putative TTA, SEQ ID NO: 36, Thermocladium modestius (protein, listed as Thermocladium modestius) MREEEAIAALSKLRAIMDRHNNWRRRETINLIPSENVMSPLAEYFYLNDMMGRYAEGTIGKRYYQGVSLVDEAEQMLVDLMSSLFSSRFTDVRPISGTVANMAVYHSVAGLGEKIASLPTAAGGHISHNETGAPKAFGLRVSYLPWSQENFNVDVDAARRLIAEERPKLVLLGASLYLFPHPIKELADAAHEVGAVLMHDSAHVLGLIAGHQFPNPLELGADIMTSSTHKTFPGPQGGVIFTTREDLFKEIQRSVFPVMTSNYHLHRYASTIVTAIEMSTYGDEYAATVRSNAKALAEQLHANGLPVVAEEHGFTATHQVAMDVSKFGGGGPIAKALEDANIIVNKNMLPWDKSPVKPSGIRMGVQEMTRMGMGKGEMAAVAELIAKVVIKGVEPSKVKPEVVELRRGFTKVRYGFDLSTLGLNCPCLPLL",no product
2,"NoTTA: putative TTA, SEQ ID NO: 39, Nocardia otitidiscaviarum (protein, listed as Nocardia otitidiscaviarum) MNTFDILEQLARYEVGTSRRLHLIASENPLDSDTRVPYMLAGTLARYAFGEPGQPNWAWPGRETLIDLEADTAAALGALLGADHVNLRPTSGLSAMTVALSALAEHAGDRATVLSLAESDGGHGSTGFMARRFGLDWQRMPADPRTGVVDLDALARQARSARGPLVLYLDAFMARFPFDLTGIRGAVGDSALIHYDGSHPLGLIAGGRFQNPLAEGADSLGGSVHKTWPGPVGKGIIATNDSALASRFDTHAAGWISHHHPADLAALALSTAWMEQHAGDYATAVIANAVQLADELADGGLSICADDRGATASHQVWVDIAPICPAPVAAQRLYDAGIVVNAIAIPGLAEPGLRLGVQELTRWGLDRDGMTVLTWVLTQLLVHNAATAVVAPQMEALRTGLTLPEDRHGLEGFLRACDPQEVSVA",no product
3,"StTTA: TTA, SEQ ID NO: 35, Streptomyces (multi-species), first 36 N-terminal amino acids removed (protein, Streptomyces (multi-species)) GVWAGDRVAQVLERLASDFVLDNTYREQHLSLTASENYPSKLVRMLGAGLQGGFYEFAPPYPAEAGEWAFPDSGANASLVGKLTGIGRQLFEAATFDWRPNGGSVAEQAVLLGTCGRGDGFVHFAHKDGGHFALESLAGAAGVNTYHLPMVDRTLLIDVDRLATLCAEHPEIKLVILDQSFKLRWQPLAQIRAALPEGVFLAYDASHDGALIAGGVLPQPTLLGADAVHGNTHKTIAGPQKAYIAFRDAEHPKLRAVSDWVCPQMQSNSHAELIAPMYVALSEVALYGHAYARQILANAQALAHGLHEEGVRVSGESFGFTETHQVHVVTGSAADALRLSLGELAQAGIRTTNIEVPGANGLHGLRLGVQAMTRRGLREPQMREVARLVAKVVLRRAEPAAVRAEVADLLQHHPLDQLAYSFDSYVDSPAAARLLGEVFR",active
4,"DbTTA: putative TTA, SEQ ID NO: 40, Deltaproteobacteria bacterium (protein, listed as Deltaproteobacteria bacterium) LTNNRELMDRIGYNLSQGLVSSQHTASLVALFIALHEARLTGKAFAKQVVENARTLASRLAALGVPVLARSDGQFTDNHHFFINLTGVASAPHQMERLLRAHLVVQRGMPFRNVDALRVGVQEVTRRGYGPGEMAQLAEWIASIVIGGADPEVVAPAVQAMAKRFDTIYYTGETVDGKLDLPEIAAPSAKGRWVDYRHLGNDFAMDDTEFSEIRALGAAAGAFPNQTDSTGNVSLRSGARVFVSSSGSYIKHLADGQVVELDAVDPSGELIDYHGAALPSSESLMHFLVYQNVPAGAVVHTHYLLTNQEAADFDVAVIAPQEYASIALARAVAEASKRSRIVYIQKHGLVFWGTDTADCLSQVHNFIHNRPNRRAAEAVYAS",no product

# Test system: ObiH
# Experiment: TTA-ADH coupled assay, ObiH screened on aromatic aldehyde substrates
# Assay type: biochemical, Pseudomonas fluorescens
# Details: 0.25-1 mM aldehyde, 100 mM L-Thr, 0.25 μM purified TTA, 30° C.
# Procedure: (§1) High-throughput screening of purified TTAs was performed with a TTA-ADH coupled assay using purified TTA and commercially available alcohol dehydrogenase from S. cerevisiae purchased from MilliporeSigma. Aldehyde stocks were prepared in 50-100 mM solutions in DMSO or acetonitrile. Reaction mixtures were prepared in a 96-well plate with 100 μL of 100 mM phosphate buffer pH 7.5, 0.5 mM NADH, 0.4 mM PLP, 15 mM MgCl2, and 100 mM L-Thr with the addition of 0.25 mM to 1 mM aldehyde depending on the background absorbance at 340 nm (Table 4), 10 U ScADH, and 0.25 μM purified TTA unless otherwise specified. Reactions were initiated with the addition of enzyme. […] The following controls were included for every assay: reaction mixture without aldehyde, without TTA, and without enzyme (TTA or ADH). Rates were calculated by identifying the linear region at the beginning of the kinetic run and converting the depletion in absorbance to the depletion of mM NADH using an NADH standard curve.
# To expand our understanding of the TTA enzyme class, we wanted a high-throughput method for rapid screening of multiple enzymes and candidate aldehyde substrates. We began by analyzing a previously reported coupled enzyme assay (FIG. 2a) based on the addition of alcohol dehydrogenase (ADH), which consumes NADH to reduce the co-product acetaldehyde in a manner that can be monitored at 340 nm. Unfortunately, this coupled assay for TTA activity suffers from false positives and confounding variables which we sought to address. […] Second, the characterized TTAs are known to catalyze the decomposition of L-Thr in the absence of an aldehyde substrate, which is an undesired reaction that also generates an acetaldehyde co-product. Another limitation of the TTA-ADH coupled assay is that many of the aromatic aldehyde candidate substrates absorb at the same measurement wavelength (Table 4). Thus, we minimized the impact of the false positives, spectral overlap, and other confounding variables by tuning enzyme and aldehyde concentrations and monitoring the undesired reactions with two controls: (1) lacking aldehyde substrate (“L-Thr”) and (2) lacking TTA (“no TTA”) where only the ADH and substrate are present. Then, we validated the TTA-ADH coupled assay by performing HPLC analysis, using the chemically synthesized β-OH-nsAA standard for the assumed product from 3, over a time course where we observed that the addition of the ScADH improves reaction rates three-fold. As previously reported by others, we were also able to improve β-OH-nsAAs yields when using the ScADH coupled to a co-factor regeneration system. As the last step of verification, we screened the TTA-ADH coupled assay with ObiH before and after photo-treatment, we observed no differences in reaction rate and continued to assay the TTAs without photo-treatment.
# Upon assay validation, we hypothesized that we could rapidly probe the activity of ObiH on diverse aldehydes to expand the potential chemical handles of β-OH-nsAAs. We successfully screened ObiH against 16 unique substrates in a single experiment (FIGS. 2b,c). […] Our screen included nine substrates not previously tested with ObiH to our knowledge; activity on seven of these substrates was confirmed with new peak formation via HPLC or LC-MS (FIGS. 3-14). The new substrates include aldehydes that contain amines, conjugatable handles, or larger hydrophobic groups to improve the chemical diversification of β-OH-nsAA products. Our result supported the known general trend that aldehydes containing electron-withdrawing ring substituents are the preferred substrates of ObiH. As expected, the amine-aldehydes were very poor substrates for ObiH, which we hypothesize is because of the strong electron-donating potential of amines. Additionally, one amine-containing substrate (5) absorbed at 340 nm, so it was only tested at low concentrations of 0.25 mM aldehyde (Table 4). […]
row,Molecule,"activity of ObiH on aldehyde substrate (initial rate, TTA-ADH coupled assay)"
1,"COc1ccc(C=O)cc1 [Aldehyde 9, 4-methoxybenzaldehyde]",some activity
2,"O=Cc1ccc(B(O)O)cc1 [Aldehyde 13, 4-boronobenzaldehyde]",activity
3,"O=Cc1ccc(-c2ccccc2)cc1 [Aldehyde 10, 4-biphenylcarboxaldehyde]",some activity
4,"O=Cc1ccccc1[N+](=O)[O-] [Aldehyde 3, 2-nitro-benzaldehyde]",validated the activity
5,"O=CCc1ccc([N+](=O)[O-])cc1 [Aldehyde 15, 4-nitro-phenylacetaldehyde]",validated the activity
6,"O=Cc1ccc2ccccc2c1 [Aldehyde 12, 2-napthalaldehyde]",some activity
7,"O=Cc1ccc(C=O)cc1 [Aldehyde 7, terephthalaldehyde]",activity

# Test system: not listed separately
# Experiment: TTA-ADH coupled assay, substrate scope of TTAs on aromatic aldehydes
# Assay type: biochemical
# Details: TTA-ADH coupled assay
# Procedure: as §1
# We specifically selected substrates with ring substituents with different electron withdrawing properties (1, 3, 6, 7, 8), substituent size (12), and aldehyde chain length (15) to compare the activity of the putative TTAs to ObiH. We were also encouraged by the activity of PbTTA and KaTTA on vanillin and protocatechualdehyde which are substrates that would form products like commercially available therapeutic, Droxidopa (FIG. 18).
# To explore the possibility that DbTTA and TmTTA are TTAs active on other related aldehydes, we sought to examine their activity with L-Thr and aldehyde substrates with different ring substituent position (2), bulkier, hydrophobic chemistry (10), and aldehyde chain length (14) using the TTA-ADH coupled assay.
row,Molecule,"TTA activity with L-Thr and aldehydes 2, 10, 14"
1,"TmTTA: putative TTA, SEQ ID NO: 36, Thermocladium modestius (protein, listed as Thermocladium modestius) MREEEAIAALSKLRAIMDRHNNWRRRETINLIPSENVMSPLAEYFYLNDMMGRYAEGTIGKRYYQGVSLVDEAEQMLVDLMSSLFSSRFTDVRPISGTVANMAVYHSVAGLGEKIASLPTAAGGHISHNETGAPKAFGLRVSYLPWSQENFNVDVDAARRLIAEERPKLVLLGASLYLFPHPIKELADAAHEVGAVLMHDSAHVLGLIAGHQFPNPLELGADIMTSSTHKTFPGPQGGVIFTTREDLFKEIQRSVFPVMTSNYHLHRYASTIVTAIEMSTYGDEYAATVRSNAKALAEQLHANGLPVVAEEHGFTATHQVAMDVSKFGGGGPIAKALEDANIIVNKNMLPWDKSPVKPSGIRMGVQEMTRMGMGKGEMAAVAELIAKVVIKGVEPSKVKPEVVELRRGFTKVRYGFDLSTLGLNCPCLPLL",Neither of these proteins appeared to have any TTA activity
2,"DbTTA: putative TTA, SEQ ID NO: 40, Deltaproteobacteria bacterium (protein, listed as Deltaproteobacteria bacterium) LTNNRELMDRIGYNLSQGLVSSQHTASLVALFIALHEARLTGKAFAKQVVENARTLASRLAALGVPVLARSDGQFTDNHHFFINLTGVASAPHQMERLLRAHLVVQRGMPFRNVDALRVGVQEVTRRGYGPGEMAQLAEWIASIVIGGADPEVVAPAVQAMAKRFDTIYYTGETVDGKLDLPEIAAPSAKGRWVDYRHLGNDFAMDDTEFSEIRALGAAAGAFPNQTDSTGNVSLRSGARVFVSSSGSYIKHLADGQVVELDAVDPSGELIDYHGAALPSSESLMHFLVYQNVPAGAVVHTHYLLTNQEAADFDVAVIAPQEYASIALARAVAEASKRSRIVYIQKHGLVFWGTDTADCLSQVHNFIHNRPNRRAAEAVYAS",Neither of these proteins appeared to have any TTA activity

# Same assay, conditions: purified with SUMO tag
row,Molecule,TTA activity on aromatic aldehydes
1,"SNTTA: putative TTA, SEQ ID NO: 38, Streptomyces sp. NRRL 30471 (protein, Streptomyces sp. NRRL 30471) MTSSDDCAASRTAPVAGRAELLALLGEIEKEQRINEAAVNLVPSENRISPWAGAPLRTDFYNRYFFNDSLDPQGWQFRGGEGIGRLEKELALPALRRLGRADHVNIRPVSGMSAMLVVLLGLGGEPGDGVVCVDAETGGHYATGRQIAMLGRRPLPVRVVAGRVDLDALRTALTSCHVPLVYLDLQNSLWELDVAGVAEVIARTSPRTVLHVDCSHTLGLILGGSHKNPLDLGADTTGGSTHKTFPGPQKGVLFTRDENLSRKIRDAQFFTISSHHFAETLALALAAAEFEHFGAAYSRQVLINARAFAHRLRERGFGVVEGGPQLTDTHQVWVRLPLEESADAFSAQLASLGIRVNVQTELPDIPEPALRLGVSEITLNGGREPAMETLAEIFALVRAGEATKAVDLFQVLPHEMGEPYFFTGLPQEAGLFHG",no TTA activity
